Data reported in the RNAGym collection of RNA variant scans (doi:10.7554/elife.90254).

B1: LINE1-full (parent)
chain: UACGUAGGUGGUUUUCCCCUGAUAGUGCUAAGGGGGCCUGGAAGUUUGGACUGGGCAGAGCUCAACACAGCGUGGCAAAGUGGCUGUGGCUAGACUGCCUCUCUGGAUUCCUCGUCACUCAGCAGGGCAUCUCUGAGAGAAAUGCC

Variants of: B1
Assay: self-cleavage, relative activity (ratio to wild type); higher = more cleavage; in vitro, sequencing; the parent is a self-cleaving ribozyme
For U13C G70C, the self-cleavage was 0.15.
With U13C G72U the self-cleavage was 1.21.
U13C G82A gave a self-cleavage of 0.72.
In the case of U13C G83U, the self-cleavage is reported as 0.27.
Variant U13C G86A has a self-cleavage of 0.13.
Variant U13C G88U has a self-cleavage of 0.09.
Variant U13C G93A has a self-cleavage of 0.17.
U13C G93U gave a self-cleavage of 0.03.
In the case of U13C G114A, the self-cleavage is reported as 1.16.
In the case of U13C G114U, the self-cleavage is reported as 1.65.
U13C G125U showed a self-cleavage of 1.4.
With U13C G126A the self-cleavage was 1.22.
In the case of U13C G127C, the self-cleavage is reported as 1.47.
Work on U13C G127U yielded a self-cleavage of 1.36.
In the case of U13C G139A, the self-cleavage is reported as 0.92.
Work on U13C U14A yielded a self-cleavage of 0.79.
In the case of U13C U14C, the self-cleavage is reported as 1.13.
In the case of U13C U15A, the self-cleavage is reported as 0.79.
U13C U15G showed a self-cleavage of 0.75.
In the case of U13C U20A, the self-cleavage is reported as 1.07.
Variant U13C U23A has a self-cleavage of 1.09.
U13C U26A showed a self-cleavage of 0.97.
In the case of U13C U26C, the self-cleavage is reported as 1.01.
U13C U29A gave a self-cleavage of 0.95.
Variant U13C U29C has a self-cleavage of 1.35.
For U13C U39A, the self-cleavage was 1.33.
In the case of U13C U39G, the self-cleavage is reported as 1.54.
With U13C U45A the self-cleavage was 0.76.
In the case of U13C U45C, the self-cleavage is reported as 1.16.
U13C U46C gave a self-cleavage of 1.17.
U13C U47A showed a self-cleavage of 1.02.
U13C U47G showed a self-cleavage of 0.81.
U13C U52A showed a self-cleavage of 1.44.
In the case of U13C U52C, the self-cleavage is reported as 1.06.
Work on U13C U81A yielded a self-cleavage of 1.56.
For U13C U85C, the self-cleavage was 0.18.
With U13C U85G the self-cleavage was 0.29.
In the case of U13C U87A, the self-cleavage is reported as 0.1.
For U13C U87C, the self-cleavage was 0.24.
U13C U96A gave a self-cleavage of 0.11.
U13C U96C showed a self-cleavage of 0.17.
In the case of U13C U100G, the self-cleavage is reported as 1.63.
U13C U104A gave a self-cleavage of 1.18.
For U13C U104C, the self-cleavage was 1.28.
U13C U108A gave a self-cleavage of 0.91.
In the case of U13C U108C, the self-cleavage is reported as 1.37.
For U13C U109A, the self-cleavage was 1.11.
Work on U13C U109C yielded a self-cleavage of 1.
Work on U13C U112A yielded a self-cleavage of 1.05.
U13C U119A showed a self-cleavage of 1.15.
U13C U119G gave a self-cleavage of 1.28.
Work on U13C U130G yielded a self-cleavage of 0.95.
With U13C U132G the self-cleavage was 1.02.
Variant U13C U134C has a self-cleavage of 1.21.
Variant U13C U143C has a self-cleavage of 1.06.
In the case of U13C U143G, the self-cleavage is reported as 2.3.
Work on U13G A30G yielded a self-cleavage of 1.27.
With U13G A30U the self-cleavage was 0.56.
U13G A31G showed a self-cleavage of 0.39.
U13G A57G showed a self-cleavage of 1.05.
U13G A57U gave a self-cleavage of 0.13.
For U13G A59G, the self-cleavage was 0.12.
U13G A69G gave a self-cleavage of 0.67.
With U13G A79G the self-cleavage was 2.7.
Variant U13G A107G has a self-cleavage of 1.12.
U13G A107U gave a self-cleavage of 1.58.
U13G A117C gave a self-cleavage of 0.65.
Work on U13G A138G yielded a self-cleavage of 1.45.
Work on U13G A141G yielded a self-cleavage of 0.94.
U13G A142G showed a self-cleavage of 1.41.
Variant U13G C99U has a self-cleavage of 0.69.
For U13G C113A, the self-cleavage was 1.43.
Work on U13G C145U yielded a self-cleavage of 1.16.
Variant U13G G34U has a self-cleavage of 1.2.
Work on U13G G105A yielded a self-cleavage of 0.74.
Variant U13G U15C has a self-cleavage of 1.47.
U13G U20A gave a self-cleavage of 0.69.
With U13G U23C the self-cleavage was 0.76.
In the case of U13G U46C, the self-cleavage is reported as 1.33.
U13G U47A showed a self-cleavage of 0.86.
In the case of U13G U73A, the self-cleavage is reported as 2.54.
In the case of U13G U96C, the self-cleavage is reported as 0.14.
With U13G U100C the self-cleavage was 1.17.
U13G U102C gave a self-cleavage of 0.66.
U13G U108C gave a self-cleavage of 1.31.
U13G U108G gave a self-cleavage of 1.2.
U13G U115C gave a self-cleavage of 1.39.
U13G U119A showed a self-cleavage of 1.8.
For U13G U134A, the self-cleavage was 1.06.
Variant U13G U143A has a self-cleavage of 1.33.
For U14A A22U, the self-cleavage was 1.6.
Variant U14A A42C has a self-cleavage of 0.97.
In the case of U14A A42G, the self-cleavage is reported as 0.98.
U14A A42U gave a self-cleavage of 0.47.
With U14A A50U the self-cleavage was 0.18.
In the case of U14A A57C, the self-cleavage is reported as 0.04.
Variant U14A A57G has a self-cleavage of 0.75.
Variant U14A A57U has a self-cleavage of 0.03.
U14A A59G showed a self-cleavage of 0.14.
With U14A A64G the self-cleavage was 0.21.
Variant U14A A64U has a self-cleavage of 0.48.
U14A A65G gave a self-cleavage of 0.06.
Work on U14A A67G yielded a self-cleavage of 0.59.
For U14A A69G, the self-cleavage was 2.24.
U14A A69U showed a self-cleavage of 0.06.
In the case of U14A A77C, the self-cleavage is reported as 0.88.
In the case of U14A A79G, the self-cleavage is reported as 0.8.
With U14A A94U the self-cleavage was 0.13.
Work on U14A A107G yielded a self-cleavage of 1.1.
Variant U14A A121C has a self-cleavage of 1.07.
With U14A A121G the self-cleavage was 0.94.
In the case of U14A A124G, the self-cleavage is reported as 0.62.
For U14A A124U, the self-cleavage was 1.67.
U14A A136U showed a self-cleavage of 1.19.
Work on U14A A138U yielded a self-cleavage of 1.07.
With U14A C51U the self-cleavage was 0.97.
U14A C63U gave a self-cleavage of 0.09.
For U14A C90U, the self-cleavage was 0.04.
For U14A C99G, the self-cleavage was 0.63.
U14A C111A gave a self-cleavage of 0.72.
Work on U14A C131U yielded a self-cleavage of 0.21.
With U14A G34A the self-cleavage was 0.78.
U14A G34C gave a self-cleavage of 1.98.
With U14A G36U the self-cleavage was 1.12.
For U14A G48A, the self-cleavage was 1.09.
In the case of U14A G54A, the self-cleavage is reported as 0.4.
Work on U14A G55U yielded a self-cleavage of 0.28.
Variant U14A G137A has a self-cleavage of 0.77.
In the case of U14A G144A, the self-cleavage is reported as 1.12.
Variant U14A U15C has a self-cleavage of 1.02.
With U14A U23A the self-cleavage was 0.72.
With U14A U26C the self-cleavage was 1.95.
In the case of U14A U47A, the self-cleavage is reported as 0.81.
Work on U14A U52A yielded a self-cleavage of 1.09.
For U14A U62C, the self-cleavage was 0.1.
Variant U14A U62G has a self-cleavage of 0.53.
Work on U14A U85C yielded a self-cleavage of 0.13.
U14A U87A gave a self-cleavage of 0.15.
In the case of U14A U96G, the self-cleavage is reported as 0.
Variant U14A U100A has a self-cleavage of 0.28.
With U14A U100C the self-cleavage was 0.78.
With U14A U102C the self-cleavage was 1.19.
Work on U14A U108C yielded a self-cleavage of 0.87.
U14A U108G showed a self-cleavage of 1.09.
Variant U14A U112A has a self-cleavage of 1.33.
Work on U14A U112C yielded a self-cleavage of 0.79.
For U14A U115A, the self-cleavage was 0.7.
U14A U115C showed a self-cleavage of 1.06.
In the case of U14A U119C, the self-cleavage is reported as 0.85.
Variant U14A U134C has a self-cleavage of 1.62.
U14A U143A gave a self-cleavage of 0.99.
U14C A22G showed a self-cleavage of 0.99.
For U14C A24G, the self-cleavage was 0.81.
In the case of U14C A24U, the self-cleavage is reported as 1.07.
Work on U14C A30G yielded a self-cleavage of 1.08.
For U14C A30U, the self-cleavage was 1.11.
In the case of U14C A42U, the self-cleavage is reported as 1.02.
U14C A43G showed a self-cleavage of 1.14.
U14C A43U gave a self-cleavage of 1.15.
With U14C A50G the self-cleavage was 1.08.
Variant U14C A57C has a self-cleavage of 0.36.
U14C A57G showed a self-cleavage of 0.89.
U14C A59G gave a self-cleavage of 0.14.
For U14C A64G, the self-cleavage was 0.33.
U14C A65G showed a self-cleavage of 0.12.
Variant U14C A67C has a self-cleavage of 0.13.
Variant U14C A67U has a self-cleavage of 0.
